One molecule from patent publication US20050287158A1, “The p65 subunit of nf-kb for the radiosensitization of cells” (Georgetown University, priority 2002, published 2005) can be followed below.

The subject of assay [1] is endogenous p65 mRNA. Put plainly: Northern blot analysis of endogenous p65 mRNA in clonal cells expressing p65DN. It counts as cell-based, human. Particulars: cell clones expressing p65DN. As to the method: (§1) Cell culture, Transfection and Clonal Selections: Human head and neck squamous carcinoma cells (SCC-35) were used for the experiments described. These cells have been previously characterized as resistant to ionizing radiation based on clinical and radiobiological parameters (30). Cells were cultured in 10 cm^2 dishes and maintained in Dulbeco modified Eagle's medium supplemented with 10% fetal bovine serum, 2 mML-amino acids. Cells were passaged routinely at 80-90% confluence and checked for mycoplasma contamination at three-month intervals. […] G418 resistant clonal cells were then subcloned and maintained in the complete medium containing G418 (400 μg/ml) as described above. Drug resistant colonies were pooled or subcloned for future studies.
RNA was electrophoresed on a 1% formaldehyde-agarose gel and then transferred to the nitrocellulose membrane, followed by UV cross-linking. The membrane was hybridized with γ-^32P-dATP labeled cDNA probes for 16 h, washed, and autoradiographed.
To investigate the effects of targeting p65 as a means of disrupting NF-κB activation, we transfected radioresistant human squamous carcinoma SCC-35 cells with an expression vector encoding amino acids 1 to 84 of human p65 (p65DN). The resulting G418-resistant colonies were isolated and analyzed for expression of p65DN and endogenous p65. […]

The test system of assay [2] is SCC-35 cells. As to the kind of experiment: Apoptotic index after γ-radiation. It counts as cell-based, human. Conditions: DN/CL6 cells. From the text: Apoptotic Index: Adherent and floating cells were collected at various times after exposure to various doses (1-20 Gy) of gamma radiation (a ^137Cs J. L. Shepherd Mark 1laboratory irradiator) and stained with acridine-orange and ethidium bromide (14). About 600 cells (˜100 cells per field) were scored for the aberrant chromosome organizations under flourescence microscopy. The apoptotic cells=(total number of cells with apoptotic nuclei/total number of cells counted)×100. All values represent the mean±SE of the experiments. All experiments were performed more than three times.
Activation of NF-κB contributes to the protection of many cell types from apoptotic cell death induced by DNA-damaging agents. However, under certain conditions and in certain cell types, activation of NF-κB induces apoptosis (37). Given that clonogenic survival analysis provides a measure of all types of cell death, we next determined the effect of p65DN expression on IR-induced apoptosis. IR induced a dose-dependent increase in the percentage of both SCC-35 and DN/CL6 cells characterized as apoptotic 48 h after irradiation (FIG. 4A). However, whereas the maximum proportion of apoptotic cells was 8% (evident at 20 Gy) for SCC-35 cells, confirming that apoptosis is not a major pathway of cell death in these cells, the maximum apoptotic index was 14% for DN/CL6 cells. The baseline apoptotic index for both cell lines was <1%.

For assay [3], the system named is IκB-α. Put plainly: Immunoblot analysis of IR-induced IκB-α Ser32 phosphorylation/degradation and nuclear p65. The class given is cell-based, human. Particulars: DN/CL6 cells. The procedure:
(§2) Western blotting: Following exposure to γ-radiation (1-20 Gy) (a ^137Cs J. L. Shepherrd Mark 1 laboratory irradiator) or TNF-α (10 ng/ml) treatment, cell extracts were prepared by using lysis buffer (50 mM Tris-Cl, pH 7.5, 100 mM NaCl, 0.1% NP40, 1 mM PMSF, 10 mg/ml leupeptin, 1 mg/ml aprotinin, 1 mg/ml perpstatin), followed by centrifugation at 12,000×g for 20 minutes. Protein quantities were determined using the BCA protein assay kit (Pierce). Equal amounts of cell extracts were analyzed on 10% SDS-polyacrylamide gels. The transblotted membranes were blocked in PBS containing 5% dry milk for 1 h and probed with specific antibodies, followed by washing with PBST. The membrane was then incubated with horse-radish peroxidase conjugated secondary antibodies for 30-60 minutes washed with PBST, and developed by using the ECL-chemiluminescence detection system (Amersham). Equal loading and transfer of proteins among lanes were confirmed by immunoblot analysis with antibodies to β-actin (Amersham) or by staining the membrane with Ponceau S. Other antibodies used in this study include anti-NF-κB(p65), IκB-α caspases-3, (Santa Cruz Biotechnology, Santa Cruz, Calif.) and PARP (Enzyme Synthesis, Dublin, Calif.).
IκB-α binds to both subunits of the p50-p65 heterodimer. We therefore next determined the effect of p65DN expression on IR-induced phosphorylation and subsequent degradation of IκB-αin the cytoplasm. […] This conclusion is consistent with the previous observation that amino acids 1 to 101 of p65 are required for its binding to IκB-α (36). We therefore propose that p65DN interferes with the inhibitory function of IκB-α by binding to this protein in both the cytoplasm and nucleus.

The subject of assay [4] is SCC-35 cells. Put plainly: Radiation (clonogenic) survival assay. It counts as cell-based, human. Particulars: DN/CL6 cells. As to the method:
Radiation survival assay: Clonogenic dose response was determined as previously described (32). Briefly, exponentially growing cells were plated in T-25 flasks and exposed to graded doses of ionizing radiation in a ^137Cs J. L. Shepherrd Mark 1 laboratory irradiator with a dose accuracy of ±5%. Physics support for calibration and quality assurance was provided for all experimental protocols. Colony counts were fit to single hit multitarget (SHMT) and the linear quadratic (L-Q) models (33). Data points were obtained from two to three independent experiments in triplicates for each experiment.
Impaired regulation of NF-κB in certain cell types is associated with intrinsic cellular radiosensitivity (14-16). To examine the role of NF-κB in determining cell sensitivity to radiation, we performed clonogenic survival assays after exposure of SCC-35 and DN/CL6 cells to graded doses of γ-radiation (FIG. 3). The sensitivity of DN/CL6 cells to IR was greater than that of the parental SCC-35 cells. According to the single-hit multitarget model (33), D0 values were determined to be 1.9 Gy (with α=0.16 and β=0.02) for SCC-35 cells and 1.2 Gy (with α=0.11 and β=0.06) for DN/CL6 cells. Because of the potential pitfalls of clonal heterogeneity associated with determination of radiation sensitivity in a clonal cell population, we also performed survival experiments with pooled transfected clones.

Assay [5] relates to NF-κB. As to the kind of experiment: NF-κB luciferase reporter assay (pNF-κB-Luc). Particulars: DN/CL6 vs SCC-35 cells; IR 20 Gy or TNF-α 10 ng/ml, 6 h. The class given is cell-based, human. The procedure:
Luciferase Reporter Assay: Cells were transiently transfected for 16 h with 5 μg/ml of plasmid DNA by using Lipofectin (Gibco-BRL). Following treatment with ionizing radiation (20 Gy) or TNF-α (10 ng/ml), cells were lysed at 6 h in Reporter Lysis Buffer (Promega), and centrifuged for 2 min at 14,000×g.
To determine whether p65DN inhibits the activation of NF-κB, we transfected DN/CL6 cells with the NF-κB-specific luciferase reporter vector pNF-κB-Luc and then examined the effect of IR or TNF-α on luciferase activity. The stimulatory effects of these agents on NF-κB activity were reduced by a factor of 2 to 3 in DN/CL6 cells compared with those apparent in SCC-35 cells (FIG. 2B). Expression of p65DN thus inhibited NF-κB activation.
(Reporter assays use an easily measured gene product as a stand-in for the process of interest.)

For assay [6], the target named is T1, caspase-3 (Homo sapiens, UniProt P42574).
T1 construct: endogenous in cells; host or cells: lysates of SCC-35 and DN/CL6 cells after 5 Gy of IR
T1 sequence (P42574 29-175 limits assumed): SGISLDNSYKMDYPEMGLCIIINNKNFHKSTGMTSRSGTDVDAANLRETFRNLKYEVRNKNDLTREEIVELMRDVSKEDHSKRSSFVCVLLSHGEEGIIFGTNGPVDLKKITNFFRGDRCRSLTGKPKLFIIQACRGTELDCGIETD
Put plainly: Caspase-3 activity, fluorogenic substrate assay after IR. It counts as cell-based. Particulars: DN/CL6 cells, IR 5 Gy. The procedure: Measurement of caspase activities—The activity of caspases-3 was assayed fluorometrically with specific fluorogenic substrates: MOCAc-Asp-Glu-Val-Asp-Ala-Pro-Lys(DNP)-NH2 (Peptide Institute, Osaka, Japan) (34). Cell extracts (60 μg of protein) were incubated for 1 h at 37° C. with 600 nM substrate in a reaction mixture (500 μl) containing 10 mM Hepes-NaOH (pH 7.4), 40 mM P-glycerophosphate, 50 mM NaCl, 2 mM MgCl2, 5 mM EGTA, 1 mM DTT, 2 mM ATP, 10 mM creatine phosphate, and creatine kinase (50 μg/ml). The fluorescence of the cleaved substrates was measured with a Hitachi F-4500 spectrophotometer at excitation and emission wavelengths, respectively, of 328 and 393 nm for MOCAc-DEVDAPK(DNP)-NH2.
The nuclear enzyme poly(ADP-ribose) polymerase (PARP), which plays an important role in the repair of DNA damage and in maintenance of genomic integrity (38, 39), is specifically cleaved between its NH2-terminal DNA-binding domain and its multifunctional COOH-terminal domain by caspase-3 or a caspase-3—like protease early during the execution phase of apoptosis (40). We therefore examined the effects of p65DN on both the cleavage of PARP and caspase-3 activity. […] Exposure to 5 Gy of γ-radiation induced a substantial increase in PARP cleavage within 48 h in DN/CL6 cells, whereas cleavage of this enzyme remained barely detectable at 72 h in SCC-35 cells (FIG. 4C).

The test system of assay [7] is endogenous p65 protein. Put plainly: Immunoblot analysis of endogenous p65 protein in DN/CL6 cells. Particulars: DN/CL6 cells (SCC-35 clone expressing p65DN). The class given is cell-based, human. As to the method:
as §1
Western blotting: Following exposure to γ-radiation (1-20 Gy) (a ^137Cs J. L. Shepherrd Mark 1 laboratory irradiator) or TNF-α (10 ng/ml) treatment, cell extracts were prepared by using lysis buffer (50 mM Tris-Cl, pH 7.5, 100 mM NaCl, 0.1% NP40, 1 mM PMSF, 10 mg/ml leupeptin, 1 mg/ml aprotinin, 1 mg/ml perpstatin), followed by centrifugation at 12,000×g for 20 minutes. Protein quantities were determined using the BCA protein assay kit (Pierce). Equal amounts of cell extracts were analyzed on 10% SDS-polyacrylamide gels. […]
On the technique in general: A western blot detects proteins with antibodies after separation by electrophoresis.

The subject of assay [8] is PARP. Put plainly: PARP cleavage by immunoblot after γ-radiation. Conditions: DN/CL6 cells. It counts as cell-based, human. As to the method: as §2, with “Calif.). […]” for “Calif.).”

B1: p65DN: dominant negative fragment, amino acids 1 to 84 of human p65 (RelA), expressed from vector pCR3.1 in SCC-35 cells (clone DN/CL6) (protein)
chain: MDELFPLIFPAEPAQASGPYVEIIEQPKQRGMRFRYKCEGRSAGSIPGERSTDTTKTHPTIKINGYTGPGTVRISLVTKDPPHR
As to B1, the “amount of endogenous p65 mRNA compared with parental SCC-35 cells” value in assay [1] is listed as “reduced”. Moreover, the “time at which substantial increase in apoptotic index was apparent” value in assay [2] (5 Gy γ-radiation) worked out at 24 h. The molecule also gave a maximum apoptotic index in assay [2] (48 h after irradiation, 2-20 Gy) of 14%. In addition, the baseline apoptotic index in assay [2] (no irradiation) was less than 1%. The “amount of p65 in the nucleus after irradiation” value in assay [3] (IR) is “decrease”. Moreover, the “IR-induced phosphorylation of IκB-α on Ser32” value in assay [3] (at 3 h after irradiation) is given as “remained markedly increased”. Also, in assay [3] (parental cells degraded within 1 h), the “time after irradiation without detectable degradation of IκB-α” value is recorded as “up to 3 h”. Moreover, in assay [4] (clonogenic survival fit), the α was 0.11 and the β is reported as 0.06. For the same molecule, in assay [4] (single-hit multitarget model, graded γ-radiation doses), the D0 turned out to be 1.2 Gy. The “factor of reduction of stimulatory effects of IR or TNF-α on NF-κB (luciferase) activity” value in assay [5] is listed as 2 to 3. In addition, the “IR-induced activation of caspase-3 compared with SCC-35 cells” value in assay [6] is “earlier and more pronounced activation”. Moreover, the “reduction of the amount of endogenous p65 protein compared with parental SCC-35 cells” value in assay [7] is 75%. In addition, the “time to substantial increase in PARP cleavage” value in assay [8] (5 Gy γ-radiation) was not above 48 h. The “γ-radiation dose resulting in PARP cleavage” value in assay [8] (data not shown) is listed as not above 2 Gy.
